Reference: patent US20130005646A1 (Novo Nordisk, published 2013)
Starred links: 1 amine or outer side, 2 acyl side, 3 side chain; linkers in the order of their positions; H or OH if unused. Positions of bridges follow the written chain, without caps; N, C: chain ends. *: point of attachment. C20 diacid = O=C(O)CCCCCCCCCCCCCCCCCCC(=O)*; 19‑carboxyheptadecanoyl = not defined here; C18 diacid = O=C(O)CCCCCCCCCCCCCCCCC(=O)*; γGlu = O=C(O)[C@H](CCC(=O)[*:2])N[*:1]; AEEA = NCCOCCOCC(=O)O

T1: human amylin 3(a) receptor (human calcitonin receptor + RAMP-3) (human, UniProt P30988 25-474; O60896 24-148)
T1 sequence (looked up) 1: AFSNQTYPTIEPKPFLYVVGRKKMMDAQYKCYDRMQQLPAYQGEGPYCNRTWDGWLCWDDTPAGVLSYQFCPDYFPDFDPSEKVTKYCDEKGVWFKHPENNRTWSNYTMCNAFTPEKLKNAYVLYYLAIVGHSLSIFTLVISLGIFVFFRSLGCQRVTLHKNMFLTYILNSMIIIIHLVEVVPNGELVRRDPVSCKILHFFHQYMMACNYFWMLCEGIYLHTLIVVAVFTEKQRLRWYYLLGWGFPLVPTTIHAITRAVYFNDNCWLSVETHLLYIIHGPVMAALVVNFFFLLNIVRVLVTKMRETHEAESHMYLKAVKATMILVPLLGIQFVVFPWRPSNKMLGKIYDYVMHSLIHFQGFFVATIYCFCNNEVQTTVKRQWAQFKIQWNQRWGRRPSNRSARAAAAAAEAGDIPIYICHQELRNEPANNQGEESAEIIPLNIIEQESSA
T1 sequence (looked up) 2: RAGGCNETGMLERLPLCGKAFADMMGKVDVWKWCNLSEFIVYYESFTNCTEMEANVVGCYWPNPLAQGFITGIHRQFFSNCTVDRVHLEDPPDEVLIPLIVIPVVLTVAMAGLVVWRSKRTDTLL

T2: human calcitonin (a) receptor (human, UniProt P30988 25-474)
T2 sequence (looked up): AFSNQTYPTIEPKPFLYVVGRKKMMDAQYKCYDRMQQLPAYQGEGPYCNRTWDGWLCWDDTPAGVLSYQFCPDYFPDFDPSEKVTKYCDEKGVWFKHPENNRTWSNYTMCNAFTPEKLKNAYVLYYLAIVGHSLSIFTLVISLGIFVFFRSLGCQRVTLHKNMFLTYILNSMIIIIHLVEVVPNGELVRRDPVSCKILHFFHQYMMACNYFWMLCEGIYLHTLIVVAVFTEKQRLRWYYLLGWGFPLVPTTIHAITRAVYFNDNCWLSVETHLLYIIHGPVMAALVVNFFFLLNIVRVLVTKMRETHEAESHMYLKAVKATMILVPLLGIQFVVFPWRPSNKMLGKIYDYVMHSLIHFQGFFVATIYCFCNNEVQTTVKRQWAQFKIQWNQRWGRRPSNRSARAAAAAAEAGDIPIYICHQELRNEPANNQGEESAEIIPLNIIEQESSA


What was measured:
[1] = biological target: T1, human amylin 3(a) receptor (human …); test: cell-based or functional assay
[2] = biological target: T2, human calcitonin (a) receptor; test: cell-based or functional assay

Binder | Amylin receptor human EC50 [1] [nM] | CTa receptor human EC50 [2] [nM]
{C20 diacid-γGlu}-EEKCNTATCATQRLAEFLHHSSNNFGPILPPTNVGSNTY-NH2 (disulfide 4-9; SMILES CC[C@H](C)[C@H](NC(=O)[C@@H]1CCCN1C(=O)CNC(=O)[C@H](Cc1ccccc1)NC(=O)[C@H](CC(N)=O)NC(=O)[C@H](CC(N)=O)NC(=O)[C@H](CO)NC(=O)[C@H](CO)NC(=O)[C@H](Cc1c[nH]cn1)NC(=O)[C@H](Cc1c[nH]cn1)NC(=O)[C@H](CC(C)C)NC(=O)[C@H](Cc1ccccc1)NC(=O)[C@H](CCC(=O)O)NC(=O)[C@H](C)NC(=O)[C@H](CC(C)C)NC(=O)[C@H](CCCNC(=N)N)NC(=O)[C@H](CCC(N)=O)NC(=O)[C@@H](NC(=O)[C@H](C)NC(=O)[C@@H]1CSSC[C@H](NC(=O)[C@H](CCCCN)NC(=O)[C@H](CCC(=O)O)NC(=O)[C@H](CCC(=O)O)NC(=O)CC[C@H](NC(=O)CCCCCCCCCCCCCCCCCCC(=O)O)C(=O)O)C(=O)N[C@@H](CC(N)=O)C(=O)N[C@@H]([C@@H](C)O)C(=O)N[C@@H](C)C(=O)N[C@@H]([C@@H](C)O)C(=O)N1)[C@@H](C)O)C(=O)N[C@@H](CC(C)C)C(=O)N1CCC[C@H]1C(=O)N1CCC[C@H]1C(=O)N[C@H](C(=O)N[C@@H](CC(N)=O)C(=O)N[C@H](C(=O)NCC(=O)N[C@@H](CO)C(=O)N[C@@H](CC(N)=O)C(=O)N[C@H](C(=O)N[C@@H](Cc1ccc(O)cc1)C(N)=O)[C@@H](C)O)C(C)C)[C@@H](C)O) [N-alpha-[(S)-4-Carboxy-4-(19-carboxynonadecanoylamino)butyryl]-Glu-Glu-[Glu14,His17]-pramlintide] | 0.402 | 0.798
{19‑carboxyheptadecanoyl-γGlu-AEEA-AEEA}-CNTATCATQRLAEFLHHSSNNFGPILPPTNVGSNTY-NH2 (disulfide 1-6; reading uncertain; also: printed as N-alpha-[2-(2-{2-[2-(2-{2-[(S)-4-Carboxy-4-(19-carboxyheptadecanoylamino)butyrylamino]ethoxy}ethoxy)acetylamino]ethoxy}ethoxy)acetyl]-[des1,Glu14,His17]-pramlintide) | 0.334 | 0.672
{C20 diacid-γGlu}-EHCNTATCATQRLAEFLHHSSNNFGPILPPTNVGSNTY-NH2 (disulfide 3-8; SMILES CC[C@H](C)[C@H](NC(=O)[C@@H]1CCCN1C(=O)CNC(=O)[C@H](Cc1ccccc1)NC(=O)[C@H](CC(N)=O)NC(=O)[C@H](CC(N)=O)NC(=O)[C@H](CO)NC(=O)[C@H](CO)NC(=O)[C@H](Cc1c[nH]cn1)NC(=O)[C@H](Cc1c[nH]cn1)NC(=O)[C@H](CC(C)C)NC(=O)[C@H](Cc1ccccc1)NC(=O)[C@H](CCC(=O)O)NC(=O)[C@H](C)NC(=O)[C@H](CC(C)C)NC(=O)[C@H](CCCNC(=N)N)NC(=O)[C@H](CCC(N)=O)NC(=O)[C@@H](NC(=O)[C@H](C)NC(=O)[C@@H]1CSSC[C@H](NC(=O)[C@H](Cc2c[nH]cn2)NC(=O)[C@H](CCC(=O)O)NC(=O)CC[C@H](NC(=O)CCCCCCCCCCCCCCCCCCC(=O)O)C(=O)O)C(=O)N[C@@H](CC(N)=O)C(=O)N[C@@H]([C@@H](C)O)C(=O)N[C@@H](C)C(=O)N[C@@H]([C@@H](C)O)C(=O)N1)[C@@H](C)O)C(=O)N[C@@H](CC(C)C)C(=O)N1CCC[C@H]1C(=O)N1CCC[C@H]1C(=O)N[C@H](C(=O)N[C@@H](CC(N)=O)C(=O)N[C@H](C(=O)NCC(=O)N[C@@H](CO)C(=O)N[C@@H](CC(N)=O)C(=O)N[C@H](C(=O)N[C@@H](Cc1ccc(O)cc1)C(N)=O)[C@@H](C)O)C(C)C)[C@@H](C)O) [N-alpha-[(S)-4-Carboxy-4-(19-carboxynonadecanoylamino)butyryl]-Glu-[His1,Glu14,His17]-pramlintide] | 0.248 | 0.439
{C18 diacid-γGlu}-HHHCNTATCATQRLAEFLHHSSNNFGPILPPTNVGSNTY-NH2 (disulfide 4-9; SMILES CC[C@H](C)[C@H](NC(=O)[C@@H]1CCCN1C(=O)CNC(=O)[C@H](Cc1ccccc1)NC(=O)[C@H](CC(N)=O)NC(=O)[C@H](CC(N)=O)NC(=O)[C@H](CO)NC(=O)[C@H](CO)NC(=O)[C@H](Cc1c[nH]cn1)NC(=O)[C@H](Cc1c[nH]cn1)NC(=O)[C@H](CC(C)C)NC(=O)[C@H](Cc1ccccc1)NC(=O)[C@H](CCC(=O)O)NC(=O)[C@H](C)NC(=O)[C@H](CC(C)C)NC(=O)[C@H](CCCNC(=N)N)NC(=O)[C@H](CCC(N)=O)NC(=O)[C@@H](NC(=O)[C@H](C)NC(=O)[C@@H]1CSSC[C@H](NC(=O)[C@H](Cc2c[nH]cn2)NC(=O)[C@H](Cc2c[nH]cn2)NC(=O)[C@H](Cc2c[nH]cn2)NC(=O)CC[C@H](NC(=O)CCCCCCCCCCCCCCCCC(=O)O)C(=O)O)C(=O)N[C@@H](CC(N)=O)C(=O)N[C@@H]([C@@H](C)O)C(=O)N[C@@H](C)C(=O)N[C@@H]([C@@H](C)O)C(=O)N1)[C@@H](C)O)C(=O)N[C@@H](CC(C)C)C(=O)N1CCC[C@H]1C(=O)N1CCC[C@H]1C(=O)N[C@H](C(=O)N[C@@H](CC(N)=O)C(=O)N[C@H](C(=O)NCC(=O)N[C@@H](CO)C(=O)N[C@@H](CC(N)=O)C(=O)N[C@H](C(=O)N[C@@H](Cc1ccc(O)cc1)C(N)=O)[C@@H](C)O)C(C)C)[C@@H](C)O) | 0.0624 | 0.265

Other lines, results leading:

Amylin receptor human EC50 [1] [nM] | CTa receptor human EC50 [2] [nM] | Binder
0.167 | 0.191 | {C20 diacid-γGlu}-HHHCNTATCATQRLAEFLHHSSNNFGPILPHTNVGSNTY-NH2 (disulfide 4-9; SMILES CC[C@H](C)[C@H](NC(=O)[C@@H]1CCCN1C(=O)CNC(=O)[C@H](Cc1ccccc1)NC(=O)[C@H](CC(N)=O)NC(=O)[C@H](CC(N)=O)NC(=O)[C@H](CO)NC(=O)[C@H](CO)NC(=O)[C@H](Cc1c[nH]cn1)NC(=O)[C@H](Cc1c[nH]cn1)NC(=O)[C@H](CC(C)C)NC(=O)[C@H](Cc1ccccc1)NC(=O)[C@H](CCC(=O)O)NC(=O)[C@H](C)NC(=O)[C@H](CC(C)C)NC(=O)[C@H](CCCNC(=N)N)NC(=O)[C@H](CCC(N)=O)NC(=O)[C@@H](NC(=O)[C@H](C)NC(=O)[C@@H]1CSSC[C@H](NC(=O)[C@H](Cc2c[nH]cn2)NC(=O)[C@H](Cc2c[nH]cn2)NC(=O)[C@H](Cc2c[nH]cn2)NC(=O)CC[C@H](NC(=O)CCCCCCCCCCCCCCCCCCC(=O)O)C(=O)O)C(=O)N[C@@H](CC(N)=O)C(=O)N[C@@H]([C@@H](C)O)C(=O)N[C@@H](C)C(=O)N[C@@H]([C@@H](C)O)C(=O)N1)[C@@H](C)O)C(=O)N[C@@H](CC(C)C)C(=O)N1CCC[C@H]1C(=O)N[C@@H](Cc1c[nH]cn1)C(=O)N[C@H](C(=O)N[C@@H](CC(N)=O)C(=O)N[C@H](C(=O)NCC(=O)N[C@@H](CO)C(=O)N[C@@H](CC(N)=O)C(=O)N[C@H](C(=O)N[C@@H](Cc1ccc(O)cc1)C(N)=O)[C@@H](C)O)C(C)C)[C@@H](C)O)
0.286 | 0.801 | {C20 diacid-γGlu}-HHHCHTATCATQRLAEFLHHSSNNFGPILPPTNVGSNTY-NH2 (disulfide 4-9; SMILES CC[C@H](C)[C@H](NC(=O)[C@@H]1CCCN1C(=O)CNC(=O)[C@H](Cc1ccccc1)NC(=O)[C@H](CC(N)=O)NC(=O)[C@H](CC(N)=O)NC(=O)[C@H](CO)NC(=O)[C@H](CO)NC(=O)[C@H](Cc1c[nH]cn1)NC(=O)[C@H](Cc1c[nH]cn1)NC(=O)[C@H](CC(C)C)NC(=O)[C@H](Cc1ccccc1)NC(=O)[C@H](CCC(=O)O)NC(=O)[C@H](C)NC(=O)[C@H](CC(C)C)NC(=O)[C@H](CCCNC(=N)N)NC(=O)[C@H](CCC(N)=O)NC(=O)[C@@H](NC(=O)[C@H](C)NC(=O)[C@@H]1CSSC[C@H](NC(=O)[C@H](Cc2c[nH]cn2)NC(=O)[C@H](Cc2c[nH]cn2)NC(=O)[C@H](Cc2c[nH]cn2)NC(=O)CC[C@H](NC(=O)CCCCCCCCCCCCCCCCCCC(=O)O)C(=O)O)C(=O)N[C@@H](Cc2c[nH]cn2)C(=O)N[C@@H]([C@@H](C)O)C(=O)N[C@@H](C)C(=O)N[C@@H]([C@@H](C)O)C(=O)N1)[C@@H](C)O)C(=O)N[C@@H](CC(C)C)C(=O)N1CCC[C@H]1C(=O)N1CCC[C@H]1C(=O)N[C@H](C(=O)N[C@@H](CC(N)=O)C(=O)N[C@H](C(=O)NCC(=O)N[C@@H](CO)C(=O)N[C@@H](CC(N)=O)C(=O)N[C@H](C(=O)N[C@@H](Cc1ccc(O)cc1)C(N)=O)[C@@H](C)O)C(C)C)[C@@H](C)O)
